The source of these data is the supplement of paper PMC10567573.

± gives the standard deviation.

This series can be described thus: protein stability index of a GFP-peptide fusion (GPS, HEK-293T) (PSI 1-6); higher = more stable.
[1] abbreviates: treatment: DMSO, c terminus: a fixed tail appended.
[2] abbreviates: treatment: MLN4924 1 uM, 8 h, c terminus: a fixed tail appended.
The mark [3] stands for this setting: treatment: DMSO, c terminus: native.
The mark [4] stands for this setting: treatment: MLN4924 1 uM, 8 h, c terminus: native.
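Also: 24-mer peptide tiles fused after GFP, lentivirally expressed, FACS-sorted into six equal bins by GFP/DsRed ratio, decoded by Illumina sequencing, PSI is the read-weighted mean bin number.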

AAHLKLTSIEEGYERSFIHKIKHK [IQUB]: the protein stability index under setting [1] came to 3.18 ± 0.24 and the protein stability index under setting [2] turned out to be 3.2 ± 0.2. On the same counts, the results for AALTRMRAESTANAGQSDNRSLAE [ANKRD17] are 4.79 ± 0.14 and 4.81 ± 0.15. For AAPAGSLSRKKRLELDDNLDTERP [TRIB3], in that order: 5.25 ± 0.33 and 5.27 ± 0.14. For AATRGGSHLQAAAQTPPRPGPPSA [SCNN1D], in that order: 4.93 ± 0.21 and 4.84 ± 0.1. As for AAWKGRVLLPETQKRQQLSEDTLT [C22orf31], the protein stability index was 3.83 ± 0.31 under setting [1] and 3.84 ± 0.38 under setting [2].

As to ACGIEHCSVHYVSDSGDGVYAGRP [FBXO34], the protein stability index is, setting by setting: under setting [1], 2.25 ± 0.29; under setting [2], 2.84 ± 1.1. Regarding ADACDIDEIEEVPTTSHRLSRHDK [NETO1], the protein stability index is 5.59 ± 0.17 under setting [1] and 5.45 ± 0.17 under setting [2]. For ADDFRTKYEHELALRQTVEADVNG [KRT16], the protein stability index by setting is: under setting [1], 5.17 ± 0.38; under setting [2], 5.09 ± 0.034. On the same counts, the results for ADLLLLTDLKTLCCEFLEGCIAAE [GAN] are 2.15 ± 0.42 and 2.16 ± 0.58. Regarding ADLRTNHTLNNLVEKLLREEAEGA [TRIM35], the protein stability index under setting [1] was found to be 4.32 ± 0.17 and the protein stability index under setting [2] stood at 4.43 ± 0.2. AEDKAAVERSKMIDRNLREDGEKA [GNAI1] yielded a protein stability index under setting [1] of 5.691 ± 0.042 and a protein stability index under setting [2] of 5.34 ± 0.13.

In the case of AEEEEEEEEEVDLACTPTDVRDVD [CCND1], the protein stability index stood at 5.53 ± 0.31 under setting [1] and 5.41 ± 0.34 under setting [2]. Consider AEEGWSPTPKCLRLCFFPFVENGH [CFHR2], for which the protein stability index is 1.96 ± 0.28 under setting [1] and 2.12 ± 0.32 under setting [2].

As to AEISQPPALSQLVNLYLGRSHFLW [TCF25], the protein stability index is, setting by setting: under setting [1], 2.67 ± 0.23; under setting [2], 2.73 ± 0.44. For AEKNCMTFFEVSPLCNFNVIESFT [RAB40C], the protein stability index runs as follows: under setting [1], 2.3 ± 0.64; under setting [2], 2.02 ± 0.24.

In the case of AELEQHLEQEQEFQVNKLMKKIKK [CCDC6], the protein stability index by setting is: under setting [1], 4.61 ± 0.26; under setting [2], 5.13 ± 0.38. For the sequence AESFPGSQVMGSGRGSLSSGGQTS [PLEKHN1], the protein stability index under setting [1] was 4.81 ± 0.2 and the protein stability index under setting [2] was 4.88 ± 0.25. AFDKKVLKFDAYFQEDVPMSTEEQ [EFHC1]: the protein stability index came out at 4.71 ± 0.17 under setting [1] and 4.73 ± 0.18 under setting [2]. As for AFPQTPFKTGNSTATCTTNNNPNS [KCNA3], the protein stability index was 4.61 ± 0.4 under setting [1] and 4.62 ± 0.17 under setting [2]. For AGLFSQEQYERNKSSSSSSSSSSS [TMEM40], in that order: 5.16 ± 0.083 and 5.32 ± 0.2. On the same counts, the results for AGRIDREELCAQSARCVVSFNILV [PCDHGA10] are 2.45 ± 1.1 and 2.37 ± 0.61. The sequence AIMCVSCICWSPFLVTMANIGING [PTGFR] gave a protein stability index under setting [1] of 3.42 ± 0.095 and a protein stability index under setting [2] of 3.71 ± 0.45. On to AIQGISEKEKAEIEAKEACDWLRA [DLC1], for which the protein stability index is, setting by setting: under setting [1], 4.69 ± 0.42; under setting [2], 4.72 ± 0.39.

As to AISSVERYDPQTNEWRMVASMSKR [KLHL20], the protein stability index under setting [1] turned out to be 3.71 ± 0.22 and the protein stability index under setting [2] was found to be 3.99 ± 0.21. As for AIVDLISRQYDKFLTHFILMNDVI [FBXO33], the protein stability index under setting [1] was found to be 3.1 ± 0.45 and the protein stability index under setting [2] turned out to be 3.36 ± 0.28. On the same counts, the results for AKEEGGEEVAKAVLEQEETAAASR [EPB41L3] are 5.47 ± 0.37 and 5.79 ± 0.095.

As for ALATLRVLRGLARPEHPPPAPTGQ [TMEM175], the protein stability index was 3.09 ± 0.22 under setting [1] and 3.09 ± 0.39 under setting [2]. Turning to ALDNESWGFVHPRLLSVPELCHHV [RETREG3], the protein stability index runs as follows: under setting [1], 2.65 ± 0.42; under setting [2], 2.46 ± 0.23.

For ALEFQPQLVLVAAGFDALQGDPKG [HDAC6], the protein stability index is, setting by setting: under setting [1], 2.86 ± 0.28; under setting [2], 3.11 ± 0.47.

On to ALELLGATFVDKKRDLLGALKYWK [FEM1C], for which the protein stability index reads like this: under setting [1], 2.25 ± 0.37; under setting [2], 2.52 ± 0.86.

On to ALGHLGNDDSADYQHFLQDCVDGL [DLC1], for which the protein stability index was found to be 4.26 ± 0.17 under setting [1] and 4.28 ± 0.46 under setting [2]. On to ALILHQRIHSGEKPYGCVECGKAF [ZNF24], for which the protein stability index by setting is: under setting [1], 2.17 ± 0.052; under setting [2], 2.5 ± 0.4. Consider ALNQEFLATRSNEKQELQELNDRF [PRPH], for which the protein stability index under setting [1] came out at 4.24 ± 0.19 and the protein stability index under setting [2] stood at 4.38 ± 0.22. As for AMEYAPGGTLAEFIQKRCNSLLEE [NEK8], the protein stability index under setting [1] worked out at 3.56 ± 0.36 and the protein stability index under setting [2] came to 3.3 ± 0.29.

For the sequence AMVLELLGPSLEDLFDLCDRTFTL [CSNK1G1], the protein stability index is 2.52 ± 1.4 under setting [1] and 1.53 ± 0.14 under setting [2]. With ANFHLNDLEAPHEDDAEGEGEWD [TCF25], the protein stability index under setting [3] is 5.63 ± 0.14 and the protein stability index under setting [4] was found to be 5.39 ± 0.22. For ANIEEVLQRGEALSALDSKANNLS [SEC22B], the protein stability index is 4.94 ± 0.16 under setting [1] and 4.89 ± 0.18 under setting [2]. Turning to ANLKQVKKEDTEKERDLRDVGDWR [TNNI2], the protein stability index runs as follows: under setting [1], 5.33 ± 0.076; under setting [2], 4.96 ± 0.24.

Take ANYVIVRAYQYTTLTSVQLLDCFG [SLC35F2]: the protein stability index is, setting by setting: under setting [1], 3.21 ± 0.26; under setting [2], 3.03 ± 0.49. On the same counts, the results for APDPELAAEMYQRGRAVLREAGFH [RSAD1] are 3.92 ± 0.32 and 4.07 ± 0.22. As for APEIDPSSDGSNFGWETKIKAWMD [KMT2E], the protein stability index under setting [1] came out at 4.21 ± 0.41 and the protein stability index under setting [2] is 4.36 ± 0.25. Turning to APKVNAVDTLNVKDIAPEKQLLNS [DLC1], the protein stability index is, setting by setting: under setting [1], 4.88 ± 0.2; under setting [2], 4.82 ± 0.35. Take APPPLKDDPEGDRDGCVITKVLL [ZBED3]: the protein stability index turned out to be 5.4 ± 0.25 under setting [3] and 5.43 ± 0.4 under setting [4]. The sequence APPTPPEEEDLRRRLKYFFMSPCD [MCOLN1] had a protein stability index under setting [1] of 4.27 ± 0.23 and a protein stability index under setting [2] of 4.15 ± 0.23.

Turning to APQHPQPGSQALPAPALAPDQLPQ [FBXO28], the protein stability index is 5.13 ± 0.32 under setting [1] and 5.04 ± 0.29 under setting [2]. In the case of APSLEAPKPSGLEPGPAAYGLKPL [KCTD13], the protein stability index stood at 4.45 ± 0.25 under setting [1] and 4.58 ± 0.1 under setting [2]. Take APSPQEALVRLRETEEMLGKKQEY [CHMP4C]: the protein stability index by setting is: under setting [1], 5.26 ± 0.25; under setting [2], 5.12 ± 0.096. On the same counts, the results for APTMLHNSSGDFSQAHSTLKLANH [TRAF3IP2] are 4.02 ± 0.19 and 4.18 ± 0.34. For APTPPSLSQRVMCNDLFKVNPFQL [TIAF1], the protein stability index turned out to be 2.11 ± 0.25 under setting [1] and 2.25 ± 0.28 under setting [2]. In the case of AQLQDFVRAKGSQSGRHLQTHSNT [STX5], the protein stability index reads like this: under setting [1], 4.13 ± 0.08; under setting [2], 4.24 ± 0.15.

AQPNTMLGRMFGSGREHNFTRPNE [BTBD10] displayed a protein stability index under setting [1] of 3.74 ± 0.53 and a protein stability index under setting [2] of 3.61 ± 0.39. The sequence AQRLRPQDEPRQGCQPEDRRRRII [KCNG1] displayed a protein stability index under setting [1] of 4.92 ± 0.23 and a protein stability index under setting [2] of 4.9 ± 0.1. ARLQEPVTFRDVAVDFTQEEWGQL [ZNF8] had a protein stability index under setting [1] of 4.13 ± 0.2 and a protein stability index under setting [2] of 4.07 ± 0.22. As for ASGKLRKKKKKQKNKKSSTGEASE [TCF25], the protein stability index under setting [1] was 4.9 ± 0.23.

Turning to ASGVGFILGPVVGGYLTELEDGFY [MFSD9], the protein stability index runs as follows: under setting [1], 2.05 ± 0.62; under setting [2], 2.17 ± 0.23. Turning to ASHLGNELEGTEELCCVAELDNPM [C2CD2L], the protein stability index runs as follows: under setting [1], 5.2 ± 0.23; under setting [2], 5.25 ± 0.18. For the sequence ASHTVGFTPPTSLTRAGMSYYNSP [CCDC6], the protein stability index is, setting by setting: under setting [1], 2.82 ± 0.44; under setting [2], 3.18 ± 0.21. In turn, ASKGCQLGKTEQGFENMDFFTLDL [TRIM63] gave a protein stability index under setting [1] of 3.22 ± 0.19 and a protein stability index under setting [2] of 3.22 ± 0.31. Take ASLGDVQSGATISMPCSTDKENGE [SASS6]: the protein stability index by setting is: under setting [1], 5.69 ± 0.17; under setting [2], 5.62 ± 0.23.

As for ATRAMGLLNTLSLAFVGGLPLAYQ [TMEM175], the protein stability index is, setting by setting: under setting [1], 3.11 ± 0.32; under setting [2], 2.99 ± 0.56. Consider ATSRTDREIKVTLVFEHVDQDLRT [CDK4], for which the protein stability index under setting [1] was 2.2 ± 0.3 and the protein stability index under setting [2] was determined as 2.26 ± 0.41.

For the sequence AVEAELKSSTVGLVTLNDMKAKQE [FAM50A], the protein stability index under setting [1] stood at 5.21 ± 0.2 and the protein stability index under setting [2] came to 5.25 ± 0.13. With AVFRFWAGGEKGPQAFPMSRLWDS [DNAAF3], the protein stability index is, setting by setting: under setting [1], 2.14 ± 0.26; under setting [2], 2.18 ± 0.22. On the same counts, the results for AVQDHGQPPLSATVTLTVAVADSI [PCDHGA10] are 2.83 ± 0.22 and 2.98 ± 0.34.

With AVSVMKKCRKLEDPQSSSQVTTS [SLC19A2], the protein stability index came to 4.36 ± 0.23 under setting [3] and 4.37 ± 0.19 under setting [4].

For the sequence AVWGQCQVRIRYLGERRAEPHSLL [SPSB2], the protein stability index is, setting by setting: under setting [1], 2.26 ± 0.23; under setting [2], 2.19 ± 0.28. For the sequence AVYFAEAEEAESHFSSIPDAFWWA [KCNA1], the protein stability index came out at 2.27 ± 0.4 under setting [1] and 2.53 ± 0.42 under setting [2].

Regarding AVYLMTFLIVTVAWAAHTRLFQVV [TMEM175], the protein stability index by setting is: under setting [1], 3.17 ± 0.097; under setting [2], 3.18 ± 0.2. As for CESDIWALGCVMYTMLLGRPPFET [PLK2], the protein stability index under setting [1] turned out to be 3.72 ± 0.55 and the protein stability index under setting [2] came to 3.59 ± 0.71. CGQPCSQKSGLIRHQKIHSGEKPY [ZNF649] displayed a protein stability index under setting [1] of 3.02 ± 0.5 and a protein stability index under setting [2] of 3.21 ± 0.28.

In the case of CHLTPSIYTEFPDETLRSGELLNM [INTS3], the protein stability index is 3.04 ± 0.17 under setting [1] and 2.99 ± 0.24 under setting [2]. In the case of CLAKGTFSDVTFILDDGTISAHKP [RHOBTB2], the protein stability index reads like this: under setting [1], 2.36 ± 0.27; under setting [2], 2.46 ± 0.17.
